This note sets out measurements from patent US20110263830A1.

The assay has as its target c-Met receptor (human) (UniProt P08581). As to the kind of experiment: cell-based or functional assay.
Sequence of UniProt P08581 (P08581 25-1390): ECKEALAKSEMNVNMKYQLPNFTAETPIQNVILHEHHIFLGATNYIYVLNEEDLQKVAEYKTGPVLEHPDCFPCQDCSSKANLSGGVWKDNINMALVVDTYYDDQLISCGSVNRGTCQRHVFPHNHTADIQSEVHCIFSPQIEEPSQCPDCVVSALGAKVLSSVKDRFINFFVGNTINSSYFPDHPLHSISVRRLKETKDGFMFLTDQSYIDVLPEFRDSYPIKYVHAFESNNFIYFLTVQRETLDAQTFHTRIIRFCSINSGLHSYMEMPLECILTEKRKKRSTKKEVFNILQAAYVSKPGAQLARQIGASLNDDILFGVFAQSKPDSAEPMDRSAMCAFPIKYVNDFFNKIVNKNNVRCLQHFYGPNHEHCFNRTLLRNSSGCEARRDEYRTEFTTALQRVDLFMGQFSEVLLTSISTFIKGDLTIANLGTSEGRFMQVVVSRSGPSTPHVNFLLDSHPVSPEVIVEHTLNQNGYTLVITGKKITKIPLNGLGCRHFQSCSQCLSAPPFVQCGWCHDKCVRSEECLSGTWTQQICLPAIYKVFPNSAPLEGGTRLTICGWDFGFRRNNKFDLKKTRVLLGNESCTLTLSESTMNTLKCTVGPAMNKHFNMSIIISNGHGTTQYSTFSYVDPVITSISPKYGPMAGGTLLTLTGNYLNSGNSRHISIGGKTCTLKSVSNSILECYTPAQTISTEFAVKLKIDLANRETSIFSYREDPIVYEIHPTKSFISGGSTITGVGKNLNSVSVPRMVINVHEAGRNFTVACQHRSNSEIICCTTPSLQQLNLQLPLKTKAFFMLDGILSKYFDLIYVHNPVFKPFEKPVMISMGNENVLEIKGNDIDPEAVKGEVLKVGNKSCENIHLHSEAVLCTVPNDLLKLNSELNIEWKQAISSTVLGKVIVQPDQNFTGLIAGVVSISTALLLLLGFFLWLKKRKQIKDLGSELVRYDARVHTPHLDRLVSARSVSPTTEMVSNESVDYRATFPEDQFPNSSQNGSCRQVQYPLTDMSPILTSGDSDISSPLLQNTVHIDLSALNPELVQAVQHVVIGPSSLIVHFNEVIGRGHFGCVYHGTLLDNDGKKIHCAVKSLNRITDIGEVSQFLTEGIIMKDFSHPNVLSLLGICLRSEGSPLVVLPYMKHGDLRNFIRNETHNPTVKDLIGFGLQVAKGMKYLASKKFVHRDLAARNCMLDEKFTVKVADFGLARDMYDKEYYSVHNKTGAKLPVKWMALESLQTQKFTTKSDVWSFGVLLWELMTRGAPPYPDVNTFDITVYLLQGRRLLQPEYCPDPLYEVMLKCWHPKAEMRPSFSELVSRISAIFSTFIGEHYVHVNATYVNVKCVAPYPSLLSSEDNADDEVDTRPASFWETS

B1: murine 11E1 Mab (antibody, from another filing, mouse IgG1, V domains shown)
VH: QVQLQQSGAELAKPGASVKMSCKASGYTFTSYWMNWVKQRPGQGLEWIGYINPTTGSTDYNQKLKDKATLTADKSSNTAYMQLSSLTSEDSAVYYCAIGGYGSWFAYWGQGTLVTVSA
VL: QIVLTQSPAIMSASPGEKVTLTCSASSSVSSTYLYWYQQKPGSSPKLWIYTTSILASGVPARFSGSGSGTSYSLTISSMETEDAASYFCHQWSSYPFTFGSGTKLDIK
For the molecule B1, the agonist effect on c-Met receptor phosphorylation, A549 cells (phospho-c-Met ELISA) (% of HGF effect) is < 5; the inhibition of HGF [100 ng/ml]-induced c-Met receptor phosphorylation, A549 cells (% inhibition of HGF effect) was > 70; the inhibition of HGF-induced proliferation of NCI-H441 cells ([3H]Thymidine) was 80 % inhibition.

B2: murine 227H1 Mab (antibody, from another filing, mouse IgG1, V domains shown)
VH: EVQLQQSGPELVKPGASMKISCKASGYSFTDYTLNWVKQSHGKTLEWIGLINPYNGGTTYNQKFKGKATLTVDKSSSTAYMELLSLTSEDSAVYYCAREEITKDFDFWGQGTTLTVSS
VL: GIVLTQSPASLAVSLGQRATISCRVSESIDTYGNSFIHWYQQKPGQPPKLLIYRASNLESGIPARFSGSGSRTDFTLTINPVEADDSATYYCQQSNEDPFTFGSGTKLEMK
As to B2, the agonist effect on c-Met receptor phosphorylation, A549 cells (phospho-c-Met ELISA) (% of HGF effect) is < 5; the inhibition of HGF [100 ng/ml]-induced c-Met receptor phosphorylation, A549 cells (% inhibition of HGF effect) was > 70; the inhibition of HGF-induced proliferation of NCI-H441 cells ([3H]Thymidine) came out at 80 % inhibition.
